Laboratory results as given in paper PMC5947699, “Cloning, purification and structure determination of the HIV integrase-binding domain of lens epithelium-derived growth factor” (Acta Crystallographica. Section F, Structural Biology …, 2018).

Target: the molecule itself
Experiment: AUC; sedimentation velocity, twofold dilution series starting from 6.5 mg/ml, 50 000 rev/min, 20°C, absorbance (280 nm) and interference optics, c(s) model in SEDFIT; buffer similar to that used for crystallization; monomer to dimer; self-association not saturated

B1: HIV integrase-binding domain (IBD) of lens epithelium-derived growth factor (LEDGF)/p75, His tag cleaved (domain or fragment, human)
chain: GGSMGSGGGGSGGGGSGGGGAAAMETSMDSRLQRIHAEIKNSLKIDNLDVNRCIEALDELASLQVTMQQAQKHTEMITTLKKIRRFKVSQVIMEKSTMLYNKFKNMFLVGE
notes: 24-amino-acid linker ending with methionine that precedes Glu345 of the IBD; left on the protein after TEV cleavage (ENLYFQ/G); Intact mass 11 882 Da measured against 11 881.66 Da calculated; The linker was not visible in the electron density; also called IBD protein; free IBD; source: E. coli B834 (DE3), purified (IMAC, SEC, TEV cleavage, reverse IMAC) for crystallization; E. coli C41 (DE3), …
Kd: ~2000 µM | stoichiometry N: 2
